Experimental data reported in article PMC4338369.

Target: alkyl hydroperoxide reductase subunit C (peroxiredoxin) from Amphibacillus xylanus (Amphibacillus xylanus) (UniProt K0J4Q8)
Assay: SPR

NADH oxidase from Amphibacillus xylanus (enzyme)
kon: 29 M⁻¹ s⁻¹
